Our source for the binding result and relative signal intensity values is patent US20250361326A1 (Hoffmann-La Roche, published 2025).

In experiment [1] the target is T1, VEGF (UniProt P15692-9 27-147).
T1 construct: also called VEGF121
T1 sequence (looked up): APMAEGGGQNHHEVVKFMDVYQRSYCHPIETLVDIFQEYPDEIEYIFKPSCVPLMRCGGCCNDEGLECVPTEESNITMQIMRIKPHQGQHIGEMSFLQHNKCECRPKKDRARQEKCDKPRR
Nature of the experiment: bridging ELISA, VEGF coated, digoxygenin-Cy5 detection; binder has dig arm, no VEGF arm.

Experiment [2] deals with T1, VEGF. Nature of the experiment: bridging ELISA of exchange reaction mix, 1.3 µM input; VEGF coated, digoxygenin-Cy5 detection; highest value = 100%; binder has dig arm, no VEGF arm. On the technique in general: In an ELISA, binding on a coated surface is turned into a signal by an enzyme label.
The target in experiment [3] is T1, VEGF. Nature of the experiment: bridging ELISA of exchange reaction mix, 1.3 µM input; VEGF coated, biocytinamid-Cy5 detection; highest value = 100%; binder has neither arm.

B1: anti-dig/anti-fluos bispecific antibody (exchange reaction: dig MHCFcRP-knob-E357K row x fluos MHCFcRP-hole-K370E column) (bispecific antibody, human IgG1, not shown: small tags and cut ends)
heavy 1: QVQLVESGGGLVKPGGSLRLSCAASGFTFSDYAMSWIRQAPGKGLEWVSSINIGATYIYYADSVKGRFTISRDNAKNSLYLQMNSLRAEDTAVYYCARPGSPYEYDKAYYSMAYWGQGTTVTVSSASTKGPSVFPLAPSSKSTSGGTAALGCLVKDYFPEPVTVSWNSGALTSGVHTFPAVLQSSGLYSLSSVVTVPSSSLGTQTYICNVNHKPSNTKVDKKVEPKSC
light 1: not shown
heavy 2: not shown
light 2: DIVMTQTPLSLSVTPGQPASISCKSSQSLVHSNGNTYLRWYLQKPGQSPKVLIYKVSNRVSGVPDRFSGSGSGTDFTLKISRVEAEDVGVYYCSQSTHVPWTFGQGTKLEIKRTVAAPSVFIFPPSDEQLKSGTASVVCLLNNFYPREAKVQWKVDNALQSGNSQESVTEQDSKDSTYSLSSTLTLSKADYEKHKVYACEVTHQGLSSPVTKSFNRGEC
notes: Product of the 2/3-IgG exchange reaction, tested as reaction mix; human IgG1 knob-into-hole format; also called dig/fluos bsAb
For B1, the binding result in the experiment with VEGF [1] is listed as “no binding (tested: 1.3 µM input molecule concentration)”. The relative signal intensity amounted to 6.7% in the experiment with VEGF [2] and 9.1% with VEGF [3].
